Data taken from patent publication US20230357341A1.
Blank lines part the entries; values can stand above or below the molecule they belong to.

Legend:
[1] = molecular target: T1, cat EPOR expressed on Ba/F3 cells (BaF3/cat EPOR) (cat)
T1 sequence: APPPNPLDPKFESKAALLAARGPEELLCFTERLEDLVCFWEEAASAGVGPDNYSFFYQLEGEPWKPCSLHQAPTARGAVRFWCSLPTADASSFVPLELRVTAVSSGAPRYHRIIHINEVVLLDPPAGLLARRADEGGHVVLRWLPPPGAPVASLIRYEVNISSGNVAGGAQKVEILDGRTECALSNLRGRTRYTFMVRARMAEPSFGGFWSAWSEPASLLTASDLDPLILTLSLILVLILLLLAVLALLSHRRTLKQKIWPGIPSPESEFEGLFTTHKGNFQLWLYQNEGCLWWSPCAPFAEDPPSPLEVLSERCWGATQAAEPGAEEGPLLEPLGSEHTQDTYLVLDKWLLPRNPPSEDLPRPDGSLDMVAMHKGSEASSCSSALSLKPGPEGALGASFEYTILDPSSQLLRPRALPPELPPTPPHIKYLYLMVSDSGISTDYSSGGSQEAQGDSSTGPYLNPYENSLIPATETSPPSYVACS

[2] = molecular target: T2, mouse EPOR expressed on Ba/F3 cells (BaF3/mouse EPOR) (mouse) (UniProt P14753)
T2 sequence: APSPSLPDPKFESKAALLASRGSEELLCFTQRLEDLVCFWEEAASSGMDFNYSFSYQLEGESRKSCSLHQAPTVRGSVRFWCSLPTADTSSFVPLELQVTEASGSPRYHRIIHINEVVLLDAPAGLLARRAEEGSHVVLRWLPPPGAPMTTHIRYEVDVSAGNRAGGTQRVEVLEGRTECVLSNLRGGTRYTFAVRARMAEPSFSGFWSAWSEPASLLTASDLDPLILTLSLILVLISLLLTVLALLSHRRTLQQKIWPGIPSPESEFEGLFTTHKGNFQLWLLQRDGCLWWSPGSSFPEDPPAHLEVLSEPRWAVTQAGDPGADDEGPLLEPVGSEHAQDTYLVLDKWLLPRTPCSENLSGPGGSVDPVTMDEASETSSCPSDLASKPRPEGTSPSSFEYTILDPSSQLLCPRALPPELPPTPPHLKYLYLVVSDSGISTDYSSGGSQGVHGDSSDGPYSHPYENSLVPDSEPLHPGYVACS

Molecule: wild-type cat EPO-His (fusion protein of cat EPO and His tag) (from UniProt P33708 27-192) (ligand)
EC50 (read off the curve), BaF3/mouse EPOR cell proliferation [2]: 0.04 nM
EC50 (read off the curve), BaF3/cat EPOR cell proliferation [1]: 0.03 nM

B1: wild-type mouse EPO-His (fusion protein of mouse EPO and His tag) (ligand)
chain: APPRLICDSRVLERYILEAKEAENVTMGCAEGPRLSENITVPDTKVNFYAWKRMEVEEQAIEVWQGLSLLSEAILQAQALLANSSQPPETLQLHIDKAISGLRSLTSLLRVLGAQKELMSPPDTTPPAPLRTLTVDTFCKLFRVYANFLRGKLKLYTGEVCRRGDRGAAHHHHHHHHH
EC50 (read off the curve), BaF3/mouse EPOR cell proliferation [2]: 0.05 nM

Next, values leading:

EC50 (read off the curve), BaF3/cat EPOR cell proliferation [1]: 0.02 nM
Molecule: human EPO (PeproTech) (from UniProt P01588 28-193) (ligand)

EC50 (read off the curve), BaF3/mouse EPOR cell proliferation [2]: 0.05 nM
EC50 (read off the curve), BaF3/cat EPOR cell proliferation [1]: 0.02 nM
B2: cat EPO-Fc (C165R cat EPO-siCFV3) of Examples 12 and 13 (Fc fusion, not shown: small tags and cut ends)
chain: APPRLICDSRVLERYILEAREAENVTMGCAEGCSFSENITVPDTKVNFYTWKRMDVGQQAVEVWQGLALLSEAILRGQALLANSSQPSETLQLHVDKAVSSLRSLTSLLRALGAQKEATSLPEATSAAPLRTFTVDTLRKLFRIYSNFLRGKLTLYTGEACRRGDRPPEMRRGPKIFIFPPKPKDTLSISRTPEVTCLVVDLGPDDSDVQITWFVDNTQVYTAKTSPREEQFNSTYRVVSVLPILHQDWLKGKEFKCKVNSKSLPSPIERTISKAKGQPHEPQVYVLPPAQEELSRNKVSVTCLIKSFHPPDIAVEWEITGQPEPENNYRTTPPQLDSDGTYFVYSKLSVDRSHWQRGNTYTCSVLHEALHAHHTRKELTQSPGK
